Experiment: label from the status in PepcDB records

Sequence | protein production
MSLNVIDLFSGVGGLSLGAARAGFDVKMAVEIDQHAINTHAINFPRSLHVQEDVSLLNAEIIKGFFKNDMPIDGIIGGPPCQGFSSIGKGNPDDSRNQLYMHFYRLVSELQPLFFLAENVPGIMQEKYSGIRNKAFNLVSGDYDILDPIKVKASDYGAPTIRTRYFFIGVKKSLKLDISDEVFMPKMIDPVTVKDALYGLPDIIDANWQSDSESWRTIKKDRKGGFYEKLWGQIPRNVGDTESIAKLKNNIISGCTGTLHSKIVQERYASLSFGETDKISRSTRLDPNGFCPTLRAGTARDKGSFQAVRPIHPYHPRVITPREAARLQGFPDWFRFHVTKWHSFRQIGNSVSPIVAEYILKGLYNLLNEGHHHHHH | not failed
MNNTNPLVSIIVPVYKVERYIHRSIDSLLRQTYNNLEIILVDDGSPDNCPFICDKYAMQDNRIRVIHKSNGGLSDARNAALNVMTGQYVTFVDSDDYIADNMIEKFIETVKLYQCNMVVAGMNIIDKNNQIYDYRRTLTSTLSTGIDITRKLLKDVFPFNFVCAKIFESSLFEEIRFPVGRHYEDTATTYKLTHKCERIYCIADCLYFYELEREGNITSELNTSKAIKSYIDGCLNSREQIFFCQKHKDFSDLLPVLTKRLQLWALLAIQSAISLGYKEYMFYYHQIRIYIRSLSYTQRMTHLQIALTFPIIYYSLYPLLSRLKKMYKN | failed
MNGSEFVPLSLTPLLIGVLAAVACALPGNFLVLRRQALIGDAISHVVLPGIVVAFLLTGAIAAWPMMLGAAGAAVVAVVLIEAIRRLGRIEPGAAMGVVFTTMFAAGVLLLEQTDTSTVHLDVEHALYGNLESLIWLDATGWASLLDPVALAGLPVELSRILVTLVGVVGFIWLFWRPLKLSTFDEGFARTLGIRTNLLGLALVIVAAVAAVAAFDAVGSIIVIAMFICPPAAARMMTNTLEGQVGWSVVFAILSAVLGYVLAGYGPLWLGARDAVSAAGMIATMSGLILALTARFGPCRSRTGAPVQA | failed
MERHVNYTLIGGLFFLCLVCMVGFILWLGHLGLDDGKYYEYVVYTDKDLGGIATNSPINYKGIQVGNVIKVGFAKDKVGVVRLDLMIKSSVKIRKDSKVAVSSRGFMGLKFLALEQSHNEEFYGSGDKGERILIFKEGLMDRLSGDANQVVQEVMKAIRNVNRILDDENVEKFKHILASVDDLIANLDSRKTQFDSLISNANNLVSNVNNVALDVDKRLKQGQYDFKAMFTPLIMQAQLSLRNIDNFVEKGSALIDKFDANPYKTIFGERK | failed
IAALSRDITPQQDGSVIVDASITIRHLNRMMGWSLPLIGPRTLSGLIIEHLGYIPPPDSCLVIDHYHIEILRVSDNMIRGVKMIKTN | failed
MLPDVFRADTGSRSLIQAQSDAQAVLTWLAEHADRPATLAAYRKEAERLLLWLAPRRQTLAQVKREDVLDYRRFLASPHPAEQWLGPARPRSHPDWKPFSKPLSPASVEHSLTVLGALFAYLNDAGYLNGNPFKLLRRRGARKSAQEIERFLDADCWRHLQATLNGLPRGSDREIRHAERALWLFTLLYLTGARRAEAAAARACDLARRNGNWWWHVVGKGGVSARIPLSDELMDALARYRLSLGLPPQPAADEDTPLVCRVGSKGQAKPLSDKAIYLVCKEVFGRAQAAAPNEDIRAKLRAASTHWLRHTAASHQLEAGVPLLLVSQNLRHASIQTTRRYLHSEEDARHEASRLHKLKRDS | failed
MVQFQNTLIKFHALSFKNANLIYNAKLNKTCYKENSNTIILRIKMLTQEDVLNALKTIIYPNFEKDIVSFGFVKNITLHDDQLGLLIEIPSSSEETSAILRENISKAMQEKGVKALNLDIKTPPKPQAPKPTTKNLAKNIKHVVMISSGKGGVGKSTTSVNLSIALANLNQKVGLLDADVYGPNIPRMMGLQSADVIMDPSGKKLIPLKAFGVSVMSMGLLYDEGQSLIWRGPMLMRAIEQMLSDIIWGDLDVLVVDMPPGTGDAQLTLAQAVPLSAGITVTTPQIVSLDDAKRSLDMFKKLHIPIAGIVENMGSFVCEHCKKESEIFGSNSMSELLEAYHTQILAKLPLEPKVRLGGDRGEPIVISHPNSVSAKIFEKMAQDLSAFLERVKKEKLADNKDIQPTQTHACSH | failed
MLHWISLLCAGCLEMAGVALMNQYAKEKSVKWVLLIIVGFAASFSLLSYAMETTPMGTAYAVWTGIGTAGGALIGILFYKEQKDAKRIFFIALILCSAVGLKILS | failed
MQGFTAYLVGFAIVAGFAVALGFIFGIFNQIVAQLNTDPNNPMISQEFVDAINLAQSLGGTGLTLAIAALIVGLAMLLIAVIRSYSGV | failed
MSLGKRMGAELIGTFWLVLGGCGSAVLAASSPLGIGVLGVAFAFGLTVLTMAFAIGHISGCHLNPAVSFGLVVGGRFPAKELLPYVIAQVIGAILAAGVIYLIASGKAGFELSAGLASNGYADHSPGGYTLGAGFVSEVVMTAMFLVVIMGATDARAPAGFAPIAIGLALTLIHLISIPVTNTSVNPARSTGPALFVGGWALQQLWLFWVAPLIGAAIGGALYRGLAKEP | failed
MSEDEAQFHGNYDDYVTYLKRRIRQLELQVRMLEADKERLERELSRLRSEMSRLRQPPAFAGSVIEVLDDDRAIVQNYNGPRFVVRIAPWIDKSKLRPGTRVALDQRTMAIIEILPASKDPAVLGFEVVERPN | failed
MNIKEYLQQHPQWKKRIHGFIMHPVKTRPYWWIRVWQPFYIKKGRGSVIYSSVRKDLPPFHLFQMGKYSVVEDFSCLNNAVGDIVIGDYCRIGLGNTVIGPIRIDNGVNISQNVVLIGLDHNYQDITQGIIEQGITTSPIHIGEHTIIGANVIVLPGITIGKHCFIGAGCVVTQNIPDYCVTVGNPARIIKRYNPQSQTWEKI | failed
MNVDVLIGEILTLSMMAFALGMDAFSVGLGMGMAKLKRNQVFQIGVIIGLFHVIMPLGGMIAGQFLSGALGALAGYIGGALLLVLGIQMIVASFNKSGEQIISPHGFGLFVFAVGVSLDSFSVGLSLGLYGTKPILTIFLFGLFSMVLTWAGLLLGKKVQTWLGAYSEALGGAILLSFGLKLLLPI | failed
MAKHLGESKQKLLQLMALSCPIRLNNAPRRLAKQARSQRIKRNISKGPGMSLSRCLSGLSNLLHYRREWLRADLRAGLSVAAIQIPIAIAYAQIVGLPPQYGLYACVLPMIVYALIGSSRQLMVGPDAATCAMLGGAVAPLAMGDLQRTVELSMIVTVLVGLMLIAAGIARAGFIASFFSRPILIGYLNGIGLSLIAGQMGKVVGFKIEGDGFILGLADFLQRLGEIHGLTLAVGLASLGLLIWLPRRYPRVPAALLTVALFTLLAGLLGFDRLGVAILGHVPAGMPELSWPKTTLEESKSLLRDALGIATVSFCSAMLTARSFAARHGYAINANHEFIALGLSNLAAGASQGFAISGADSRTAVNDMAGGKSQLVGIIAALAIALILLFFTAPMAWIPQPALGAVLLMAGWGLLDVKSLKQIYRLSRFEFWLCLLTTVSVLGLGVLPGIMFAVTLAILRLLYSIYQPTDAVLGWMPGIEGQVDIRQYPQARTVPGLVVYRFDDAILFFNADYFKMRLLDTVQRESQPEVVLFDAEAVTDIDVSGIAVLREIRETLAAQGIYFAIARARGTFLAMLERSGMTREMDSQLLFGSVRSGIRTYRIWRNSMRGKQ | failed
MLCRKNSSLVDRGNVPVYLNVYDLTPINGYAYWLGLGVYHSGVEVHGIEYAYGAHEYPSTGIFEGEPKQCEGFTFRKSILIGKTDLGPLEVRATMEQLADNYKGSSYNLITKNCNHFCDETCIKLTGNPIPSWVNRLARIGKFSGFMCNCVLPATINATRFGNNRVNQDKSCEAENEKKKLTSVSSRERSTIATPSSSSSSPSVQVRGRSRKRRPRALQPSSPLTLGSSSV | failed
MAKRFMCETLGTACLGLSMALAAPAAFALADIIETPARPTELAPQSLLTDATRAGDRIVSVGERGHVIYSDDQGQSWTQAEVPVAVTLTAVDFGTEQHGWVVGHSGVVLHSSDSGETWELQLDGIQAAELVIASKEDQIAELEERIEQAPEEEKADLEWALDDLFFALENTQADMEIGPVNPFLDVWFEDENHGFVVGAYGMILRTQDGGQTWEDWAPKLDNPTNFHYNSIAEVAGGALVVVGEAGQIHVSVDGGESWEKRESPYDGSLFGVTGTGRVNEVLAFGLRGNTLLSTDLGRSWTMVPNEGGATLNNAAVAEDGRITLVGNGGAVLMSTNNGESFRPYFRNDREGVMGVVPLPGTNLLLVGEGGVEITDARGRNLN | failed
MIAFQALQAISPIDGRYRNKVEVLSRYFSEGSLIRYRVKVEVEYFIALCNELPSLKDVCPPSLEEELRRIYQDFSEKDAVRVKEIEAVTNHDVKAVEYFLKERFEAMGIRDAKEFIHFGLTSQDVNNTAFPMMIREAMTEVYLPALQELVEQLHAYALQWKDVPMLAKTHGQPASPTRLGKEIEVFVYRLRKQIDLLLEVPHSAKFGGATGNFNAHHVAYPDHDWSDFGRRFVTSLGLEREELTTQISNYDNMAALFDACCRINVILIDLCRDFWQYISMEYFKQKIKAGEVGSSAMPHKVNPIDYENAEGNLGIANAIFEHLSRKLPISRLQRDLTDSTVLRNVGTPLAHSLIAVTSIAKGLGKLLLNEAALDRDLQNNYAVVAEAIQTILRREGYPNPYETLKALTRTNETVTAESIASFIEALDIDETVKEEMRRISPSNYVGI | failed
MPYDWKRTETRQELRLWPHNSLPPRGAAGFVLLVFALGLLPLIAVLGSPLLWGLLPFLLLAVAGLWLAIEANYRQRRILEVLTLDPERAHLVRHNPRGAVQEWDCNRYWARATLHAHGGPVPHYVTLQGCGREVEIGAFLSEDERIALYDDLREMLSK | failed
MDTPPTVFSIIIPVYNRPDEVRELLESLLIQTNSDFEVIIVEDGSSVCCDKEVDRVRELLRIQYVRVPNGGPAAARNIGARMAVGEYLLILDSDVVLPSGYIAAVKKRIEQMQADAFGGPDAAAEGFSPIQKAINYAMTSFFTTGGIRGGRRVRLDKFYPRSFNFGCKLSVYRQLGGFSEEMRFGEDIDFSLRLFKAGYNVCLFPEAFVFHKRRIDFKKFFRQVYNSGIARIHLQRRHPGSMKPVHILPALFTLGSVILAVGQFFCPWSLLPLLLLALLFLLDAWHTNRSLRIAILAVPASFVQLWGYGSGFLVACWRCYVLGHQEFRAFDKTFYN | failed
MPDLGLTDAESLGHCLFDTGFGVCGIAWRAFEGKDEAPVVTLFLLPEATAAGTAAAMARRCGGSPTVPPPAIAEVIEKVRRHFRGDLQDFSRVRVEPDGAGPFARAVYSAARDVPAGQIRTYGELARALNRPAAARAVGQALGRNPVPLIIPCHRILGAGGKLGGFSAHGGVATKARMLRLEGVAV | failed
IHFTTEVITSRIEPANRYVAEKLRITPGQDILYLERLRSIGDEKAMLIENRINIELCPGIVEIDFNQHNLFPTIESLSKRKIRYSESRYAARLIGNERGHFLDISEDAPVLHLEQLVFFSRELPVEFGNVWLKG | failed
MARIRIEAPGTIVYETLMDVRIGDINYANHLGNDALLRIAQEARLRLFRDWGYVDELHIDGVGIVVADAAICYLSEAFLGDVLRILVGTADIHRKGLDFIYQVIDDNSGREVARLKTGIVFFDYPARQVALMPESFSAKLGQLEHHHHHH | not failed
MPNQSNESRPFHKDLESILYAHVPLPMFTMDEEGALLNMNEGAMETLRVDWEQNQRSSVFQLFESECRESLYLALATVNKISQVEKVELIKRNGETFETFCLSLQLLPDKQVIAFIAPLIDKGMDPLTGVPIRQEVPRLMERTFQENQAETYVLFLINLDRFKLVNDSLGEGYGDQVLQTLVRRLLWQLPNQQWIARVSGDEFIACAAIKGELPKKETLATYISSIIQQPFQVDEVQFTMTASIGAAVYPMDGKSVEMIWNSLERALRHAKARGGNCVSWFCQELKDEWIHPFRLENDLRRAVENQELELYFQPIFETTTGEHCGEEVLVRWNHPALGVLGPNFFIPVAEEIGLIGVVGKWVLDEACKQKALLIEKEASSVPMSVNLSLRQFLQPDIVDMILDSLNKYGLDPSLLEVEVTERITIDMNRAMKVLQKLRAQGIRVSLDDFGTGYSSLQYISQLPIQKLKIDKSFIAEIGVNSQVEAIISMIIHLGHELDLTVVAEGVETEKQLSFLKEKKCDTVQGYYHAKPLTFSEFKKYLLS | failed
